Laboratory results taken from paper PMC6837886.

Tests used:
[1] = biological target: T1, UP1 (RRM1-RRM2 fragment of hnRNP A1) (UniProt P09651 1-196); assay: ITC
[2] = biological target: T1, UP1 (RRM1-RRM2 fragment of hnRNP A1); assay: NMR
[3] = biological target: T1, UP1 (RRM1-RRM2 fragment of hnRNP A1); assay: NMR; remark: listed apart in the source
[4] = biological target: T1, UP1 (RRM1-RRM2 fragment of hnRNP A1); assay: ITC; remark: listed apart in the source
[5] = biological target: T1, UP1 (RRM1-RRM2 fragment of hnRNP A1); assay: NMR; remark: listed apart in the source

T1 sequence (P09651 1-196): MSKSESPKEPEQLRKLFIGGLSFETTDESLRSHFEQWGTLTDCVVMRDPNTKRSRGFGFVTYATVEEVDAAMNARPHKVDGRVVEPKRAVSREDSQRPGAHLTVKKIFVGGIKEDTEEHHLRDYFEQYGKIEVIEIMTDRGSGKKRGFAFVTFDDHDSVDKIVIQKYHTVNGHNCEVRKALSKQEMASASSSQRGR

Row | Binder | Kd [1] [µM] | Kd [2] [µM] | Kd [3] [µM] | Kd [4] [µM] | Kd [5] [µM]
1 | GCACCACACGGGUUUCAGACAAAAUCCG (structured_RNA) [SMN1 exon 7 ESE1 hairpin] | 51.3 ± 2.5 | 101 ± 29 | – | – | –
2 | GCACCACACGGGUUUUAGACAAAAUCCG (structured_RNA) [SMN2 exon 7 ESE1 hairpin] | 47.4 ± 19.7 | – | 100 ± 20 | – | –
3 | GCACCACAGGAUCAAUAGCAGGUGUGGCACACCAGUCAUACCUUGAUCC (structured_RNA) [EV2] | – | – | – | 5.1 ± 1.9 | 11.1 ± 5.1
4 | GCACCACACG (ssRNA) [RNA0] | – | 978 ± 162 | – | – | –
